Measured values: paper PMC4937327
Read-outs that look alike come from different tables or passages of the source.

How the values were obtained:
[1] = target: PtAUREO1c (aureochrome 1c from Phaeodactylum tricornutum), full length (Phaeodactylum tricornutum); assay: MST
[2] = target: PtAUREO1a bZIP-A′α-LOV-Jα functional module (residues D145-D378) (Phaeodactylum tricornutum); assay: MST
[3] = target: PtAUREO1a bZIP-A′α-LOV-Jα functional module (residues D145-D378) (Phaeodactylum tricornutum); assay: SAXS
[4] = target: PtAUREO1a bZIP-A′α-LOV-Jα functional module (residues D145-D378) (Phaeodactylum tricornutum); assay: SEC
[5] = target: PtAUREO1a bZIP-A′α-LOV-Jα functional module (residues D145-D378) (Phaeodactylum tricornutum); assay: SEC; remark: listed apart in the source
[6] = target: PtAUREO1a bZIP-A′α-LOV-Jα functional module (residues D145-D378) (Phaeodactylum tricornutum); assay: MST; remark: listed apart in the source

Substance	Kd [1]	Kd [2]	stoichiometry N [3]	stoichiometry N [4]	stoichiometry N [5]	Kd [6]
PtAUREO1a (aureochrome 1a from Phaeodactylum tricornutum), full length (natural protein)	240 nM					
PtAUREO1a bZIP-A′α-LOV-Jα functional module (residues D145-D378) (domain or fragment)	450 nM	240 to 280 nM	2	2	2	
dsDNA/bZIP-A′α-LOV-Jα complex (PtAUREO1a bZIP-A′α-LOV-Jα dimer bound to dsDNA)		800 nM				2600 nM
